Experiments:
[1] = target: T1, recombinant Echinococcus granulosus P29 (Echinococcus granulosus, UniProt Q9U8G7); assay: SPR; called SPR by the paper; mAb 4G10F4 (5 ug/mL) captured on the AMC probe, antigen P29 at 500, 250, 125, 62.5, 31.3 and 0 nM in PBST; Octet RH16 (Sartorius), Data Analysis 12.0; details: both partners purified
T1 construct: P29, 29 kDa antigen of Echinococcus granulosus, GenBank AAD53328.1; 238 amino acids by the BLAST comparison with E. multilocularis P29 (235/238); band at about 30 kDa on SDS-PAGE; also called rEgP29; rEg.P29
T1 sequence (Q9U8G7 whole entry): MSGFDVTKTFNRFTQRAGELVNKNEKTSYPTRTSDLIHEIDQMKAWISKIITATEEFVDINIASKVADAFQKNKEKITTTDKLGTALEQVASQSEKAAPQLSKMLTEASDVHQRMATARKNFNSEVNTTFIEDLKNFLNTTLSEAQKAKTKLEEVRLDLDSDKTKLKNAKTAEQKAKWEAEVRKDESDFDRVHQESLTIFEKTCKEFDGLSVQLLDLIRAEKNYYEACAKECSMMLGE

[2] = target: T2, peptide 13 of the 45 overlapping peptides of rEgP29 (Echinococcus granulosus); assay: ELISA; peptide scan by indirect ELISA; 45 overlapping 15-mer peptides of rEgP29 coated at 5 ug/mL; purified mAb at 1:5,000; details: both partners purified
T2 construct: residues 61-75 of P29 of Echinococcus granulosus, one of 45 overlapping 15-mers (overlap of 10 residues); source: synthetic peptide
T2 chain: NIASKVADAFQKNKE

B1: 4G10F4 monoclonal antibody against rEgP29 (antibody, V domains shown)
VH: EVKLEESGPGLVAPSQSLSITCTVSGFSLFSYAVHWVRQPPGKGLEWLGVIWAGGSTDYNSALMSRLSISKDNSKSQVFLKMNSLQTDDTAMYYCASIHYYGYWHFDVWGAGTTVTVSS
VL: DIVMTQSPLSLPVSLGDQASISCRSSQSIVHSNGNTYLEWYLQKPGQSPKLLIYKVSNRFSGVPDRFSGSGSGTDFTLKISRVEAEDLGVYYCFQGSHVPYTFGGGTKLEIK
notes: Mouse IgG1 (subtype by ELISA); also called 4G10F4 mAb; anti-P29 mAb; source: mouse hybridoma (BALB/c splenocytes fused with Sp2/0), culture supernatant; also purified from serum-free supernatant (protein G column)
[1]
  Kd: 6.29 nM
  koff: 0.00049 s⁻¹
  kon: 77800 M⁻¹ s⁻¹
[2]
  binding result: binds
